The conditions of the series: whole UniProt chain shown.
Setting [1] is: Armoracia rusticana, pH 7.4, 21 °C, GdnHCl, CD, Sodium phosphate 20 mM, CaCl2 1 mM, reversible: yes.
The mark [2] stands for this setting: Armoracia rusticana, pH 7.4, 21 °C, GdnHCl, Fluorescence, Sodium phosphate 20 mM, CaCl2 1 mM, reversible: yes.
Where [3] appears, read: Aspergillus oryzae (strain ATCC 42149 / RIB 40), pH 1, Thermal, NMR, HCl, KCl 0.15 M, reversible: yes.
The mark [4] stands for this setting: Aspergillus oryzae (strain ATCC 42149 / RIB 40), pH 1.2, 25 °C, Thermal, Absorbance, glycine-HCl 30 mM, NaCl 0.10 M.
[5] abbreviates: Aspergillus oryzae (strain ATCC 42149 / RIB 40), pH 1.6, Thermal, CD, HCl, reversible: yes.
Setting [6] is: Aspergillus oryzae (strain ATCC 42149 / RIB 40), pH 2, 15 °C, GdnHCl, CD, HCl, reversible: yes.
The mark [7] stands for this setting: Aspergillus oryzae (strain ATCC 42149 / RIB 40), pH 2.08, Thermal, CD, HCl, reversible: yes.
Setting [8] is: Aspergillus oryzae (strain ATCC 42149 / RIB 40), pH 2.2, Thermal, Absorbance, glycine 50 mM.
The mark [9] stands for this setting: Aspergillus oryzae (strain ATCC 42149 / RIB 40), pH 2.2, Thermal, CD, glycine 50 mM.
Setting [10] is: Aspergillus oryzae (strain ATCC 42149 / RIB 40), pH 2.2, Thermal, Fluorescence, glycine 50 mM.
The mark [11] stands for this setting: Aspergillus oryzae (strain ATCC 42149 / RIB 40), pH 2.5, Thermal, DSC, glycine 50 mM, NaCl 200 mM, reversible: yes.
The mark [12] stands for this setting: Aspergillus oryzae (strain ATCC 42149 / RIB 40), pH 4.4, Thermal, NMR, Unknown.
[13] abbreviates: Aspergillus oryzae (strain ATCC 42149 / RIB 40), pH 4.5, Thermal, DSC, Potassium acetate 50 mM, reversible: no.
Setting [14] is: Aspergillus oryzae (strain ATCC 42149 / RIB 40), pH 4.6, 25 °C, GdnHCl, Absorbance, Sodium acetate 100 mM, reversible: yes.
[15] abbreviates: Aspergillus oryzae (strain ATCC 42149 / RIB 40), pH 4.6, 30 °C, GdnHCl, Absorbance, Sodium acetate 100 mM, reversible: yes.
[16] abbreviates: Aspergillus oryzae (strain ATCC 42149 / RIB 40), pH 4.6, 35 °C, GdnHCl, Absorbance, Sodium acetate 100 mM, reversible: yes.
Where [17] appears, read: Aspergillus oryzae (strain ATCC 42149 / RIB 40), pH 4.6, Thermal, Absorbance, Sodium acetate 50 mM.
[18] abbreviates: Aspergillus oryzae (strain ATCC 42149 / RIB 40), pH 5, 10 °C, GdnHCl, Fluorescence, Sodium acetate 50 mM.
Where [19] appears, read: Aspergillus oryzae (strain ATCC 42149 / RIB 40), pH 5, Thermal, Absorbance, Sodium acetate 50 mM, reversible: Yes.
Where [20] appears, read: Aspergillus oryzae (strain ATCC 42149 / RIB 40), pH 5, Thermal, Absorbance, Sodium acetate 0.10 M, NaCl 0.10 M, reversible: yes.
Where [21] appears, read: Aspergillus oryzae (strain ATCC 42149 / RIB 40), pH 5, Thermal, Absorbance, sodium acetate 5-20 mM, reversible: yes.
[22] abbreviates: Aspergillus oryzae (strain ATCC 42149 / RIB 40), pH 5, Thermal, CD, sodium acetate 5-20 mM, reversible: yes.
[23] abbreviates: Aspergillus oryzae (strain ATCC 42149 / RIB 40), pH 5, Thermal, DSC, acetate 50 mM, reversible: no.
Where [24] appears, read: Aspergillus oryzae (strain ATCC 42149 / RIB 40), pH 5, Thermal, Fluorescence, Sodium acetate 0.05 M, reversible: yes.

Where “and” joins values, the source holds several entries; their conditions need not be identical. Equal entries are not always repeated.

B1: Peroxidase C2 wild type, P17179 (protein)
chain: MHSSSSLIKLGFLLLLLNVSLSHAQLSPSFYDKTCPQVFDIATNTIKTALRSDPRIAASILRLHFHDCFVNGCDASILLDNTTSFRTEKDAFGNARSARGFDVIDTMKAAVEKACPKTVSCADLLAIAAQKSVVLAGGPSWKVPSGRRDSLRGFMDLANDNLPGPSSTLQVLKDKFRNVGLDRPSDLVALSGGHTFGKNQCQFIMDRLYNFSNSGKPDPTLDKSYLSTLRKQCPRNGNLSVLVDFDLRTPTIFDNKYYVNLKENKGLIQSDQELFSSPDASDTIPLVRAYADGQGKFFDAFVEAMIRMGNLSPSTGKQGEIRLNCRVVNSKPKIMDVVDTNDFASSI
Consider B1, for which the Tm (Armoracia rusticana, pH 7, Thermal, Fluorescence, Unknown, reversible: yes) is 74 °C. Under setting [1], the denaturant m value is 1.8 kcal/mol/M and the unfolding free energy stood at 1.82 kcal/mol. Under setting [2], the denaturant m value worked out at 0.3 kcal/mol/M and the unfolding free energy came out at 2.2 kcal/mol.

B2: Guanyl-specific ribonuclease T1 wild type, P00651 (protein)
chain: MMYSKLLTLTTLLLPTALALPSLVERACDYTCGSNCYSSSDVSTAQAAGYQLHEDGETVGSNSYPHKYNNYEGFDFSVSSPYYEWPILSSGDVYSGGSPGADRVVFNENNQLAGVITHTGASGNNFVECT
B2: the Tm under setting [3] turned out to be 42.4 °C; the Tm under setting [5] worked out at 23 °C; the Tm (Aspergillus oryzae (strain ATCC 42149 / RIB 40), pH 1.9, Thermal, CD, HCl, reversible: yes) is 25.8 °C; the midpoint of thermal melting (Tm) under setting [7] came out at 28.7 °C; the Tm under setting [8] was determined as 8.3 °C; the Tm under setting [9] came out at 20.2 °C. In addition, the Tm was found to be 9.3 °C under setting [10]; 40 °C under setting [11]; 52.3 °C under setting [12]; 57 °C under setting [13]; 56.2 °C under setting [17]; 58 °C under setting [19]. Also, the Tm is 44.4 °C (Aspergillus oryzae (strain ATCC 42149 / RIB 40), pH 5, Thermal, Absorbance, Sodium acetate 50 mM, reversible: yes); 63.3 °C under setting [20]; 61.5 °C (Aspergillus oryzae (strain ATCC 42149 / RIB 40), pH 5, Thermal, Absorbance, sodium acetate 50 mM, reversible: yes); 58.2 °C under setting [21]; 53.7 °C (Aspergillus oryzae (strain ATCC 42149 / RIB 40), pH 5, Thermal, CD, sodium acetate 50 mM); 64.3 °C under setting [22]. Moreover, the midpoint of thermal melting (Tm) runs as follows: under setting [23], 58.9 °C; (Aspergillus oryzae (strain ATCC 42149 / RIB 40), pH 5, Thermal, Fluorescence, Sodium acetate 0.01 M, reversible: yes (>98%)) 58.8 °C; under setting [24], 56.7 °C; (Aspergillus oryzae (strain ATCC 42149 / RIB 40), pH 5, Thermal, Fluorescence, Sodium formate 0.1 M, NaCl 0.25 M, reversible: yes) 59.3 °C. For the same protein, the “heat capacity change of unfolding” value runs as follows: under setting [3], 1.79 kcal/mol/K; under setting [4], 1.47 kcal/mol/K; under setting [11], 1.15 kcal/mol/K. Further, the “unfolding enthalpy (van 't Hoff)” value was 43.2 kcal/mol under setting [3]; 54.8 kcal/mol under setting [4]; 49 kcal/mol under setting [8]; 20 kcal/mol under setting [9]; 24 kcal/mol under setting [10]; 127 kcal/mol under setting [12]. Also, the “unfolding enthalpy (van 't Hoff)” value is 107 kcal/mol under setting [17]; 104 kcal/mol under setting [19]; 118 kcal/mol under setting [20]; 102 kcal/mol under setting [21]; 90.8 kcal/mol under setting [22]; 117 kcal/mol under setting [24]. For the same protein, the unfolding free energy came to 1 kcal/mol under setting [4]; 1.72 kcal/mol under setting [5]; 3.68 kcal/mol under setting [6]; 3.16 kcal/mol under setting [7]; 7.22 kcal/mol under setting [14]; 6.59 kcal/mol under setting [15]. Also, the unfolding free energy reads like this: under setting [16], 5.6 kcal/mol; under setting [18], 9.54 kcal/mol; (Aspergillus oryzae (strain ATCC 42149 / RIB 40), pH 5, 25 °C, GdnHCl, CD, Sodium acetate-Acetic acid 0.1 M, reversible: yes) 10.5 kcal/mol; (Aspergillus oryzae (strain ATCC 42149 / RIB 40), pH 5, 25 °C, GdnHCl, DSC, Sodium acetate-Acetic acid 0.1 M, reversible: yes) 11 kcal/mol; (Aspergillus oryzae (strain ATCC 42149 / RIB 40), pH 5, 40 °C, Thermal, Absorbance, Sodium acetate 50 mM, reversible: Yes) 5.06 kcal/mol. The “denaturant midpoint (higher = more stable)” value is, setting by setting: under setting [6], 1.86 M; under setting [14], 2.82 M; under setting [15], 2.56 M; under setting [16], 2.25 M; under setting [18], 5.18 M. The “unfolding enthalpy (calorimetric)” value is 85 kcal/mol under setting [11], 106 kcal/mol under setting [13] and 89.6 kcal/mol under setting [23]. For the same protein, the denaturant m value amounted to 2.56 kcal/mol/M under setting [14], 2.65 kcal/mol/M under setting [15], 2.48 kcal/mol/M under setting [16] and 1.84 kcal/mol/M under setting [18].

B3: Thioredoxin wild type, P80579 (protein)
chain: ATMTLTDANFQQAIQGDKPVLVDFWAAWCGPCRMMAPVLEEFAEAHADKVTVAKLNVDENPETTSQFGIMSIPTLILFKGGRPVKQLIGYQPKEQLEAQLADVLQ
Regarding B3, the “denaturant midpoint (higher = more stable)” value reads like this: (Alicyclobacillus acidocaldarius subsp. acidocaldarius, pH 7, GdHCl, CD, Sodium phosphate 10 mM, reversible: yes) 2.9 M; (Alicyclobacillus acidocaldarius subsp. acidocaldarius, pH 7, Urea, CD, Sodium phosphate 10 mM, reversible: yes) 6.7 M. Moreover, under “Alicyclobacillus acidocaldarius subsp. acidocaldarius, pH 7, Thermal, CD, Sodium phosphate 10 mM, reversible: yes”, the Tm was 84.5 °C and 88.2 °C.

B4: wild type, Q7M1T4 (protein)
chain: ASQTITVGPWGGPGGNGWDDGSYTGIRQIELSYKEAIGSFSVIYDLNGEPFSGPKHTSKLPYKNVKIELRFPDEFLESVSGYTAPFSALATPTPVVRSLTFKTNKGRTFGPYGDEEGTYFNLPIENGLIVGFKGRTGDLLDAIGVHMAL
For the protein B4, the midpoint of thermal melting (Tm) runs as follows: (Artocarpus integer, pH 7.4, Thermal, CD, phosphate buffered saline (PBS) 10 mM, NaCl 150 mM, reversible: no) 65.8 °C; (Artocarpus integer, pH 7.4, Thermal, Fluorescence, phosphate buffered saline (PBS) 10 mM, NaCl 150 mM, reversible: no) 63.9 °C.

Source of the values: FireProtDB.
